Source: patent US20260266848A1, “COMPOSITIONS AND METHODS FOR DIAGNOSING AND TREATING DYSTONIA” (Duke University, priority 2023, published 2026)

How the values were obtained:
DYT-TOR1A MEF EVs = test: Quantitative LC-MS/MS proteomics of EVs from drug-treated DYT-TOR1A MEF cultures (ritonavir, salubrinal); format: cell-based, mouse; set-up: key to RTV Corrective Direction / RTV Corrective Direction, Grwd1 / RTV Corrective Direction, Srrm2 / RTV Corrective Direction, Rbm17 / RTV Corrective Direction, Dcaf8 / RTV Corrective Direction, Edil3 / RTV Corrective Direction, Timp3 / RTV Corrective Direction, Heatr3 / RTV Corrective Direction, Brd4 / RTV Corrective Direction, P3h4 / RTV Corrective Direction, Pacsin3 / RTV Corrective Direction, Naa50 / RTV Corrective Direction, Lpar6 / RTV Corrective Direction, Ndrg1 / RTV Corrective Direction, Kntc1 / RTV Corrective Direction, Cdk11b / RTV Corrective Direction, Sumo1 / RTV Corrective Direction, Lsm4 / RTV Corrective Direction, Hmga2 / RTV Corrective Direction, Cstf1 / RTV Corrective Direction, Tes / RTV Corrective Direction, Sbno1 / RTV Corrective Direction, Unc119b / RTV Corrective Direction, Cfdp1 / RTV Corrective Direction, Sec61b: YES = protein abundance effect opposite to DYT/WT; conditions: EV protein abundance; for RTV Corrective Direction: DYT + RTV (ritonavir) vs DYT, direction compared with DYT/WT; for DYT + RTV/DYT Cohen's d: ritonavir (RTV)-treated DYT vs DYT
WT MEF EVs = test: Quantitative LC-MS/MS proteomics of EVs from ISRIB-treated WT MEF cultures; format: cell-based, mouse; set-up: key to ISRIB and DYT Parallel Direction / ISRIB and DYT Parallel Direction, Ctdsp1 / ISRIB and DYT Parallel Direction, Pcdh19 / ISRIB and DYT Parallel Direction, Tspan7 / ISRIB and DYT Parallel Direction, Myo1e / ISRIB and DYT Parallel Direction, Plpp3 / ISRIB and DYT Parallel Direction, Sh3bp4 / ISRIB and DYT Parallel Direction, Dnajc7 / ISRIB and DYT Parallel Direction, Drg1 / ISRIB and DYT Parallel Direction, Maea: YES = protein abundance effect similar to DYT/WT; conditions: EV protein abundance; for WT + ISRIB/WT Cohen's d: ISRIB-treated WT vs WT; for ISRIB and DYT Parallel Direction: WT + ISRIB vs WT, direction compared with DYT/WT

| Molecule | RTV Corrective Direction (DYT-TOR1A MEF EVs) | DYT + RTV/DYT Cohen's d (DYT-TOR1A MEF EVs) | WT + ISRIB/WT Cohen's d (WT MEF EVs) | ISRIB and DYT Parallel Direction (WT MEF EVs) |
| --- | --- | --- | --- | --- |
| Pbdc1 (protein, UniProt Q9D0B6 1-198, looked up) Protein PBDC1: MDAAGESEEPVSGEALSIAHALSHPPESYGNDPDIEMAWAIRAMQHAEVYYKLISSVDPQFLKLTKVDDQIYSEFREIFETLRVDVLDPEELKSESAKEKWRPFCLKFEGIVEDYNYGTLLRLDCSQGYTEENTIFAPRIQFFAIEIARNREGYNKAVSVSIQDKEGEEGAGNKEEAAEKGADSGGEKEEGANREGEK | YES | 3.36 | −1.06 | YES |
| Hnrnpl (protein, UniProt P14866 1-589, looked up) Heterogeneous nuclear …: MSRRLLPRAEKRRRRLEQRQQPDEQRRRSGAMVKMAAAGGGGGGGRYYGGGSEGGRAPKRLKTDNAGDQHGGGGGGGGGAGAAGGGGGGENYDDPHKTPASPVVHIRGLIDGVVEADLVEALQEFGPISYVVVMPKKRQALVEFEDVLGACNAVNYAADNQIYIAGHPAFVNYSTSQKISRPGDSDDSRSVNSVLLFTILNPIYSITTDVLYTICNPCGPVQRIVIFRKNGVQAMVEFDSVQSAQRAKASLNGADIYSGCCTLKIEYAKPTRLNVFKNDQDTWDYTNPNLSGQGDPGSNPNKRQRQPPLLGDHPAEYGGPHGGYHSHYHDEGYGPPPPHYEGRRMGPPVGGHRRGPSRYGPQYGHPPPPPPPPEYGPHADSPVLMVYGLDQSKMNCDRVFNVFCLYGNVEKVKFMKSKPGAAMVEMADGYAVDRAITHLNNNFMFGQKLNVCVSKQPAIMPGQSYGLEDGSCSYKDFSESRNNRFSTPEQAAKNRIQHPSNVLHFFNAPLEVTEENFFEICDELGVKRPSSVKVFSGKSERSSSGLLEWESKSDALETLGFLNHYQMKNPNGPYPYTLKLCFSTAQHAS | YES | 6.17 | −0.32 | YES |
| Dpp3 (protein, UniProt Q99KK7 2-738, looked up) Dipeptidyl peptidase 3: ADTQYILPNDIGVSSLDCREAFRLLSPTERLYAHHLSRAAWYGGLAVLLQTSPEAPYIYALLSRLFRAQDPDQLRQHALAEGLTEEEYQAFLVYAAGVYSNMGNYKSFGDTKFVPNLPKDKLGRVILGSKAAQQRPEEVRDLWQTCGDLMFSLEPRLRHLGLGKEGVTTYFSGDCTMEDAKLAQDFLDSQNLSAYNTRLFKVVGQEGKSHYEVRLASVLNTDPALDSELTSKLKRYEFQGNHFQVTRGDYAPILQKVVEHLEKAKAYAANSHQEQMLAQYVESFTQGSIEAHKRGSRFWIQDKGPIVESYIGFIESYRDPFGSRGEFEGFVAMVNKAMSAKFERLVASAEQLLKELPWPLAFEKDKFLTPDFTSLDVLTFAGSGIPAGINIPNYDDLRQTEGFKNVSLGNVLAVAYAAKREKLTFLEEEDKDLYIRWKGPSFDVQVGLHELLGHGSGKLFVQDEKGAFNFDKETVINPETGEQIQSWYRSGETWDSKFSTIASSYEECRAESVGLYLCLNPQVLEIFGFEGADAEDVIYVNWLNMVRAGLLALEFYTPEAANWRQAHMQARFVILRVLLEAGEGLVTVTPTTGSDGRPDARVRLDRSKIRSVGRPALERFLRRLQVLKSTGDVVAGRALYEGYAAVTDAPPECFLTLRDTVLLRKESRKLIVQPNTRLEGSEVQLVEYEASAAGLIRSFCERFPEDGPELEEVLIQLAAADARFWRNQAQEAPPGQA | YES | 5.13 | −1.56 | YES |
| Upf1 (protein, UniProt Q9EPU0 1-1124, looked up) Regulator of nonsense …: MSVEAYGPSSQTLTFLDTEEAELLGADTQGSEFEFTDFTLPSQTQTPPGGPGGAGGPGGAGAGGAAGQLDAQVGPEGILQNGAVDDSVAKTSQLLAELNFEEDEEDTYYTKDLPVHACSYCGIHDPACVVYCNTSKKWFCNGRGNTSGSHIVNHLVRAKCKEVTLHKDGPLGETVLECYNCGCRNVFLLGFIPAKADSVVVLLCRQPCASQSSLKDINWDSSQWQPLIQDRCFLSWLVKIPSEQEQLRARQITAQQINKLEELWKENPSATLEDLEKPGVDEEPQHVLLRYEDAYQYQNIFGPLVKLEADYDKKLKESQTQDNITVRWDLGLNKKRIAFFTLPKTDSGNEDLVIIWLRDMRLMQGDEICLRYKGDLAPLWKGIGHVIKVPDNYGDEIAIELRSSVGAPVEVTHNFQVDFVWKSTSFDRMQSALKTFAVDETSVSGYIYHKLLGHEVEDVVIKCQLPKRFTAQGLPDLNHSQVYAVKTVLQRPLSLIQGPPGTGKTVTSATIVYHLARQGNGPVLVCAPSNIAVDQLTEKIHQTGLKVVRLCAKSREAIDSPVSFLALHNQIRNMDSMPELQKLQQLKDETGELSSADEKRYRALKRTAERELLMNADVICCTCVGAGDPRLAKMQFRSILIDESTQATEPECMVPVVLGAKQLILVGDHCQLGPVVMCKKAAKAGLSQSLFERLVVLGIRPIRLQVQYRMHPALSAFPSNIFYEGSLQNGVTAADRVKKGFDFQWPQPDKPMFFYVTQGQEEIASSGTSYLNRTEAANVEKITTKLLKAGAKPDQIGIITPYEGQRSYLVQYMQFSGSLHTKLYQEVEIASVDAFQGREKDFIILSCVRANEHQGIGFLNDPRRLNVALTRARYGVIIVGNPKALSKQPLWNHLLSYYKEQKALVEGPLNNLRESLMQFSKPRKLVNTVNPGARFMTTAMYDAREAIIPGSVYDRSSQGRPSNMYFQTHDQISMISAGPSHVAAMNIPIPFNLVMPPMPPPGYFGQANGPAAGRGTPKTKTGRGGRQKNRFGLPGPSQTTLPNSQASQDVASQPFSQGALTQGYVSMSQPSQMSQPGLSQPELSQDSYLGDEFKSQIDVALSQDSTYQGERAYQHGGVTGLSQY | YES | 4.24 | −1.84 | YES |
| Eif4g2 (protein, UniProt Q62448 1-906, looked up) Eukaryotic translation …: MESAIAEGGASRFSASSGGGGSRGAPQHYPKTAGNSEFLGKTPGQNAQKWIPARSTRRDDNSAANNSANEKERHDAIFRKVRGILNKLTPEKFDKLCLELLNVGVESKLILKGVILLIVDKALEEPKYSSLYAQLCLRLAEDAPNFDGPAAEGQPGQKQSTTFRRLLISKLQDEFENRTRNVDVYDKRENPLLPEEEEQRAIAKIKMLGNIKFIGELGKLDLIHESILHKCIKTLLEKKKRVQLKDMGEDLECLCQIMRTVGPRLDHERAKSLMDQYFARMCSLMLSKELPARIRFLLQDTVELREHHWVPRKAFLDNGPKTINQIRQDAVKDLGVFIPAPMAQGRSDFFLEGPFMPPRMKMDRDPLGGLADMFGQMPGSGIGTGPGVIQDRFSPTMGRHRSNQLFNGHGGHIMPPTQSQFGEMGGKFMKSQGLSQLYHNQSQGLLSQLQGQSKDMPPRFSKKGQLNADEISLRPAQSFLMNKNQVPKLQPQITMIPPSAQPPRTQTPPLGQTPQLGLKTNPPLIQEKPAKTSKKPPPSKEELLKLTEAVVTDYLNSGNANDAVSGVREMRAPKHFLPEMLSKVIILSLDRSDEDKEKASSLISLLKQEGIATSDNFMQAFLNVLEQCPKLEVDIPLVKSYLAQFAARAIISELVSISELAQPLESGTHFPLFLLCLQQLAKLQDREWLTELFQQSKVNMQKMLPEIDQNKDRMLEILEGKGLSFLFPLLKLEKELLKQIKLDPSPQTIYKWIKDNISPKLHVDKGFVNILMTSFLQYISSEVSPPSDETDSSSAPSKEQLEQEKQLLLSFKPVMQKFLHDHVDLQVSALYALQVHCYNSSFPKGMLLRFFVHFYDMEIIEEEAFLAWKEDITQEFPGKGKALFQVNQWLTWLETAEEEESEEEAD | YES | 2.79 | −3.04 | YES |
| Itgb5 (protein, UniProt O70309 24-798, looked up) Integrin beta-5: GLNICTSGSATSCEECLLIHPKCAWCSKEYFGNPRSITSRCDLKANLIRNGCEGEIESPASSTHVLRNLPLSSKGSSATGSDVIQMTPQEIAVSLRPGEQTTFQLQVRQVEDYPVDLYYLMDLSLSMKDDLENIRSLGTKLAEEMRKLTSNFRLGFGSFVDKDISPFSYTAPRYQTNPCIGYKLFPNCVPSFGFRHLLPLTDRVDSFNEEVRKQRVSRNRDAPEGGFDAVLQAAVCKEKIGWRKDALHLLVFTTDDVPHIALDGKLGGLVQPHDGQCHLNEANEYTASNQMDYPSLALLGEKLAENNINLIFAVTKNHYMLYKNFTALIPGTTVEILHGDSKNIIQLIINAYSSIRAKVELSVWDQPEDLNLFFTATCQDGISYPGQRKCEGLKIGDTASFEVSVEARSCPGRQAAQSFTLRPVGFRDSLQVEVAYNCTCGCSTGLEPNSARCSGNGTYTCGLCECDPGYLGTRCECQEGENQSGYQNLCREAEGKPLCSGRGECSCNQCSCFESEFGRIYGPFCECDSFSCARNKGVLCSGHGECHCGECKCHAGYIGDNCNCSTDVSTCKAKDGQICSDRGRCVCGQCQCTEPGAFGETCEKCPTCPDACSSKRDCVECLLLHQGKPDNQTCHHQCKDEVITWVDTIVKDDQEAVLCFYKTAKDCVMMFSYTELPNGRSNLTVLREPECGSAPNAMTILLAVVGSILLIGMALLAIWKLLVTIHDRREFAKFQSERSRARYEMASNPLYRKPISTHTVDFAFNKFNKSYNGSV | YES | −4.69 | 1.22 | YES |
